Reference: doi:10.1101/293738 (bioRxiv, 2018)

Biological target: T1, LonS674A labelled with Atto-488 (LonS674A*) (Caulobacter crescentus, UniProt P0CAW0 1-799, S674A, Atto-488 on lysine residues (NHS ester))
T1 sequence (looked up): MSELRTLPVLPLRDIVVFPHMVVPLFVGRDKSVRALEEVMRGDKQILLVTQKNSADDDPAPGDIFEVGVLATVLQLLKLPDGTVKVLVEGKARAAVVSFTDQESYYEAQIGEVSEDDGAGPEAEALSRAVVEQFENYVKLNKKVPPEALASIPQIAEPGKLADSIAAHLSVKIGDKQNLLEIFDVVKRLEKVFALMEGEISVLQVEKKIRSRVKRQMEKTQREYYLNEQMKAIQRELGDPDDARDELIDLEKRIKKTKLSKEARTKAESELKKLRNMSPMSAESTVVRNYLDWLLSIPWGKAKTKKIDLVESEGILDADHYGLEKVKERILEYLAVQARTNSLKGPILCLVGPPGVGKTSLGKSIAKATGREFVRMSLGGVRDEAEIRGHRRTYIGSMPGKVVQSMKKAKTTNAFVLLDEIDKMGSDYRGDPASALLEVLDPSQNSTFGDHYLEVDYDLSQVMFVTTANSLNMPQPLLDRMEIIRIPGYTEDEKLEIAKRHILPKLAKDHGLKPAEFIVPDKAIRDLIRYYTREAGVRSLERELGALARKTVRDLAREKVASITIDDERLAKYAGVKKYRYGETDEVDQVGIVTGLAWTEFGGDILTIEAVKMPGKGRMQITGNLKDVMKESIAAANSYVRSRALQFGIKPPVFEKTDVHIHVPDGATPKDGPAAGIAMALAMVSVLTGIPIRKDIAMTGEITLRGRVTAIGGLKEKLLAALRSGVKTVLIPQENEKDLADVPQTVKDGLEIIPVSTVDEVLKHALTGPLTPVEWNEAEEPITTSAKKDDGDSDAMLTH
Assay: MST

B1: CcrM DNA methyltransferase (purified recombinant) (enzyme, Caulobacter crescentus, UniProt P0CAW2 1-358, looked up)
chain: MKFGPETIIHGDCIEQMNALPEKSVDLIFADPPYNLQLGGDLLRPDNSKVDAVDDHWDQFESFAAYDKFTREWLKAARRVLKDDGAIWVIGSYHNIFRVGVAVQDLGFWILNDIVWRKSNPMPNFKGTRFANAHETLIWASKSQNAKRYTFNYDALKMANDEVQMRSDWTIPLCTGEERIKGADGQKAHPTQKPEALLYRVILSTTKPGDVILDPFFGVGTTGAAAKRLGRKFIGIEREAEYLEHAKARIAKVVPIAPEDLDVMGSKRAEPRVPFGTIVEAGLLSPGDTLYCSKGTHVAKVRPDGSITVGDLSGSIHKIGALVQSAPACNGWTYWHFKTDAGLAPIDVLRAQVRAGMN
Kd: 1180 ± 85 nM
